From publication PMC3461317 (Biochemistry, 2010)

Assays:
[1] = system: CC(=O)SCCNC(=O)CCNC(=O)[C@H](O)C(C)(C)COP(=O)(O)OP(=O)(O)OC[C@H]1O[C@@H](n2cnc3c(N)ncnc32)[C@H](O)[C@@H]1OP(=O)(O)O; experiment: purified protein; type: biochemical, Streptantibioticus cattleyicolor; conditions: 100 mM Tris-HCl pH 7.6, 25 °C, 0.5 mM DTNB
[2] = system: CC(C)(COP(=O)(O)OP(=O)(O)OC[C@H]1O[C@@H](n2cnc3c(N)ncnc32)[C@H](O)[C@@H]1OP(=O)(O)O)[C@@H](O)C(=O)NCCC(=O)NCCSC(=O)CF; experiment: purified protein; type: biochemical, Streptantibioticus cattleyicolor; conditions: 100 mM Tris-HCl pH 7.6, 25 °C, 0.5 mM DTNB
crystal structure = target: the molecule itself; experiment: crystal structure
SEC = target: the molecule itself; experiment: SEC

Molecule	Km [1]	kcat [1]	kcat/Km [1]	Km [2]	kcat [2]	kcat/Km [2]	binding result (crystal structure)	stoichiometry N (SEC)
FlK (Streptantibioticus cattleyicolor)	(2.1 ± 0.5) × 10^3 μM	0.06 ± 0.01 s⁻¹	30 ± 10 M⁻¹ s⁻¹	8 ± 1 µM	390 ± 20 s⁻¹	5e+07 ± 1e+07 M⁻¹ s⁻¹		
FlK (Streptantibioticus cattleyicolor; F33A)				(1.5 ± 0.4) × 10^3 μM	27 ± 4 s⁻¹	18000 ± 5000 M⁻¹ s⁻¹		
FlK (Streptantibioticus cattleyicolor; F36A)				(7.1 ± 0.8) × 10^2 μM	270 ± 20 s⁻¹	370000 ± 50000 M⁻¹ s⁻¹		
FlK (Streptantibioticus cattleyicolor; H76A)				(2.0 ± 0.7) × 10^1 μM	0.003 ± 0.0003 s⁻¹	150 ± 50 M⁻¹ s⁻¹		
FlK (Streptantibioticus cattleyicolor; L26A)				(1.2 ± 0.2) × 10^2 μM	6.7 ± 0.1 s⁻¹	57000 ± 8000 M⁻¹ s⁻¹		
FlK (Streptantibioticus cattleyicolor; T42A)				(1.1 ± 0.4) × 10^2 μM	0.45 ± 0.09 s⁻¹	4000 ± 2000 M⁻¹ s⁻¹		
FlK (Streptantibioticus cattleyicolor; T42C)				(3.6 ± 1) × 10^2 μM	11 ± 2 s⁻¹	30000 ± 10000 M⁻¹ s⁻¹		
FlK (Streptantibioticus cattleyicolor; T42S)	(6.1 ± 0.9) × 10^1 μM	0.01 ± 0.001 s⁻¹	160 ± 30 M⁻¹ s⁻¹	(6 ± 2) × 10^1 μM	19 ± 4 s⁻¹	300000 ± 100000 M⁻¹ s⁻¹		
FlK (Streptantibioticus cattleyicolor; V23A)				(3.0 ± 1.5) × 10^2 μM	150 ± 30 s⁻¹	500000 ± 300000 M⁻¹ s⁻¹		
FlK-F36A (enzyme, Streptomyces cattleya) MKDGMRVGERFTHDFVVPPHKTVRHLYPESPEFAEAPEVFATGFMVGLMEWACVRAMAPYLEPGEGSLGTAICVTHTAATPPGLTVTVTAELRSVEGRRLSWRVSAHDGVDEIGSGTHERAVIHLEKFNAKVRQKTPAG							binds	
FlK-E50Q (enzyme, Streptomyces cattleya) MKDGMRVGERFTHDFVVPPHKTVRHLYPESPEFAEFPEVFATGFMVGLMQWACVRAMAPYLEPGEGSLGTAICVTHTAATPPGLTVTVTAELRSVEGRRLSWRVSAHDGVDEIGSGTHERAVIHLEKFNAKVRQKTPAG								2
